A word on the Kd: it is the constant that tells how readily two partners part at equilibrium. The low end stands for a tighter complex, the high end for a looser complex.

Where a chain is given by its changes, count along the chain named.

For the test, the target named is human VISTA (V-domain Ig Suppressor of T cell Activation) (human) (UniProt Q9H7M9). Put plainly: Table 1 column 'Kd, M'; method not stated.

B1: VSTB63 (antibody, from a related filing, V domains shown)
VH: QVQLQESGPGLVKPSETLSLTCAVSGFSITSDFAWNWIRQPPGKGLEWIGYITYSGFTNYNPSLESRVTISVDTSKNQFSLKLSSVTAADTAVYYCARQEYGNYVWYFDVWGQGTLVTVSS
VL: DIVMTQTPLSLSVTPGQPASISCRASESVEYYGTSLLQWYLQKPGQPPQLLIYAASNVESGVPDRFSGSGSGTDFTLKISRVEAEDVGVYYCQQSRKVPWTFGQGTKLEIK
In the case of B1, the Kd is 0.83 nM. In other words, the sub-nanomolar range.

B2: VSTB54 (antibody, from a related filing, V domains shown)
VH: QVQLVQSGAEVKKPGASVKVSCKASGYNIKDTYMHWVRQAPGQGLEWMGRIDPTHGYVIYDPKFQGRVTMTRDTSTSTVYMELSSLRSEDTAVYYCARDRFDPYWFLDVWGQGTLVTVSS
VL: B1 VL with L37M, P47S, A54D, S56F
With B2, the Kd was 0.0253 nM.

(Values after patent US20190330349A1.)
